Positions count from the first letter of the chain named. Numbers in names are those of the source. Each block holds one binder with its values, some of them ahead of it.
Tests used:
[1] = target: T1, IL-2Rα in a human Fc fusion protein format (ACROBiosystems) (human, UniProt P01589 22-213, limits assumed); experiment: biosensor kinetics, receptor as ligand on the sensor, IL-2 protein as sample, 1:1 Binding model (legend: Octet QKe; table heads give RU)
T1 construct: Bought reagent; also called CD25; not shown: human Fc (captured by anti-human IgG Fc)
T1 sequence (looked up): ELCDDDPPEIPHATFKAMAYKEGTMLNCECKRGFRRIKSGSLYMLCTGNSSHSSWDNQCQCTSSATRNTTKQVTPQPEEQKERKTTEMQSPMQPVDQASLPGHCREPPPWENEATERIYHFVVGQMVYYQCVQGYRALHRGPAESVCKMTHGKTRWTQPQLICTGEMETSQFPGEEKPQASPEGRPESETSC

[2] = target: T2, IL-2Rβγ-human Fc fusion protein construct (ACRO Biosystems) (human, UniProt P14784 27-239; P31785 23-262, limits assumed); experiment: as above
T2 construct: not shown: human Fc
T2 sequence (looked up) 1: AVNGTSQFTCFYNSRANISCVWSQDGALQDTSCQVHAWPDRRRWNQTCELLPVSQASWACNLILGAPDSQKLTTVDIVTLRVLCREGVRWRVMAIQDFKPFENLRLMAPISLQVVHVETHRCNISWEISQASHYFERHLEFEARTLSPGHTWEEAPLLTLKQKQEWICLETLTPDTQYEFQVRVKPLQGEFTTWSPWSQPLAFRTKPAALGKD
T2 sequence (looked up) 2: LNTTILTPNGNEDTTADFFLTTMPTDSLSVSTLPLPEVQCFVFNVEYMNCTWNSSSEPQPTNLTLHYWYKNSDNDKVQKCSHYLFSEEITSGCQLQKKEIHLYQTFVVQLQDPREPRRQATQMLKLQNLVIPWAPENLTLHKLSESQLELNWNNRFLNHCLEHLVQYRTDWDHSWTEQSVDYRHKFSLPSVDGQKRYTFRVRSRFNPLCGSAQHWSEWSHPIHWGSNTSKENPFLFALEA

IL2R αβγ = target: T3, IL2R αβγ; experiment: as above
T3 construct: Cell-free IL-2Rαβγ on a biosensor; not the cell-borne receptors m18 and m19; also called IL-2Rαβγ (ligand on the sensor)

[3] = target: T1, IL-2Rα in a human Fc fusion protein …; experiment: ELISA, receptor-Fc captured by anti-human IgG Fc, anti-His-HRP detection
Procedure: (§1) IL-2Rα and IL-2R βγ-human Fc fusion protein constructs (ACRO Biosystems) were each expressed and immobilized by anti-Human IgG Fc (abeam), which were then captured on the surface of wells of a microplate. […] Binding was detected using anti-His or anti-PEG antibody conjugated to horse radish peroxidase (HRP) (Genscript), which was incubated with substrate. The quantification of binding was measured with an absorbance-based microplate reader. Data were analyzed by Graphpas prism9 Software.

[4] = target: T2, IL-2Rβγ-human Fc fusion protein …; experiment: as above
Procedure: as §1

[5] = target: T1, IL-2Rα in a human Fc fusion protein …; experiment: ELISA; EC50 on IL-2Rα over EC50 on IL-2Rβγ (reference)
Procedure: as §1

[6] = target: T1, IL-2Rα in a human Fc fusion protein …; experiment: BLI (Octet QKe), IL-2Rα-Fc captured on AHC sensors, 1:1 fit
Excerpt: (§2) IL-2Rα or IL-2Rβ in a human Fc fusion protein format (ACROBiosystems) were captured on anti-human IgG Fc capture (AHC) sensors. […] Dissociation was detected following transfer of sensors into wells containing buffer alone. Data were collected and analyzed by the Octet User Software. For analysis of the kinetics constants, a 1:1 curve fitting model was used.

[7] = target: T1, IL-2Rα in a human Fc fusion protein …; experiment: BLI (Octet QKe), IL-2Rα-Fc captured on AHC sensors, 1:1 fit; row printed a second time
Excerpt: as §2

[8] = target: T2, IL-2Rβγ-human Fc fusion protein …; experiment: ELISA; EC50 of rhIL2 (reference) over EC50 of ACT5211 on IL-2Rβγ
Procedure: as §1

[9] = target: T1, IL-2Rα in a human Fc fusion protein …; experiment: ELISA; EC50 of rhIL2 (reference) over EC50 of ACT5211 on IL-2Rα
Procedure: as §1

[10] = target: T2, IL-2Rβγ-human Fc fusion protein …; experiment: ELISA, receptor-Fc captured by anti-human IgG Fc on the plate, detection with anti-His or anti-PEG antibody-HRP; unit from the axis (Table 4 of the text prints 21.7)
Procedure: as §1

[11] = target: T1, IL-2Rα in a human Fc fusion protein …; experiment: ELISA, receptor-Fc captured by anti-human IgG Fc, anti-His or anti-PEG HRP detection
Procedure: as §1

[12] = target: T2, IL-2Rβγ-human Fc fusion protein …; experiment: as above
Procedure: as §1

[13] = target: T1, IL-2Rα in a human Fc fusion protein …; experiment: ELISA, receptor-Fc captured by anti-human IgG Fc on the plate, detection with anti-His or anti-PEG antibody-HRP; unit from the axis (Table 4 of the text prints 5.1)
Procedure: as §1

[14] = target: T1, IL-2Rα in a human Fc fusion protein …; experiment: ELISA; α/βγ EC50 ratio of rhIL2 (reference) over that of ACT5211
Procedure: as §1

IL2R β = target: T4, IL2R β; experiment: biosensor sensorgrams, receptor on the sensor, IL-2 protein in solution (legend: Octet QKe); axes without units, concentrations not given
T4 construct: also called IL-2Rβ in a human Fc fusion protein format (ACROBiosystems); CD122; not shown: The human IgG Fc carrier and any linker of the ACROBiosystems fusion
T4 chain: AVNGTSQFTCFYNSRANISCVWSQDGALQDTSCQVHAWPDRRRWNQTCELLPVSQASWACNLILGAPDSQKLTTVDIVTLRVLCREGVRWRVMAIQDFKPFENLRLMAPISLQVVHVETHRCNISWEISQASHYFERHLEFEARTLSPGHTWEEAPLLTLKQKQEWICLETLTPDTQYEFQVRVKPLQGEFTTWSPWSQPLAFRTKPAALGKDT
Excerpt: as §2

Kd [1]: 28.4 nM
koff [1]: 0.164 s⁻¹
kon [1]: 5.75e+06 M⁻¹ s⁻¹
Kd [2]: 1.04 nM
koff [2]: 0.000837 s⁻¹
kon [2]: 807000 M⁻¹ s⁻¹
Kd (IL2R αβγ): 0.0113 nM
koff (IL2R αβγ): 0.000281 s⁻¹
kon (IL2R αβγ): 2.48e+07 M⁻¹ s⁻¹
EC50 [3]: 2.5 ng/mL
EC50 [4]: 39.6 ng/mL
Ratio (α/βγ) of EC50 [5]: 0.06
B1: ACT5210, IL-2 mutein Y31C + L18M + L19S (ligand)
chain: APTSSSTKKTQLQLEHLMSDLQMILNGINNCKNPKLTRMLTFKFYMPKKATELKHLQCLEEELKPLEEVLNLAQSKNFHLRPRDLISNINVIVLELKGSETTFMCEYADETATIVEFLNRWITFSQSIISTLT
notes: Not PEGylated; rhIL-2 (C125S) background; also called His-conjugated IL-2 mutein (ACT5210); not shown: His-Tag

Kd [6]: 37.3 nM
koff [6]: 0.0194 s⁻¹
kon [6]: 520000 M⁻¹ s⁻¹
B2: IL-2 mutein Y31C - PEG20 + N30A (ligand)
chain: B1 chain with M18L, S19L, N30A
modifications: maleimide-PEG 20K on Cys 31
notes: not shown: His-Tag

Kd [6]: 8.86 nM
koff [6]: 0.0035 s⁻¹
kon [6]: 393000 M⁻¹ s⁻¹
B4: IL-2 mutein Y31C - PEG20 + V69A + Q74P + I128T (ligand)
chain: B1 chain with M18L, S19L, V69A, Q74P, I128T
modifications: maleimide-PEG 20K on Cys 31
notes: not shown: His-Tag

Kd [6]: 9.09 nM
koff [6]: 0.00431 s⁻¹
kon [6]: 474000 M⁻¹ s⁻¹
B5: ACT5231, IL-2 mutein Y31C + V69A + Q74P (PEG20K) (ligand)
chain: B1 chain with M18L, S19L, V69A, Q74P
modifications: maleimide-PEG 20K on Cys 31
notes: rhIL-2 (C125S) background; also called Y31C - PEG20 + V69A + Q74P; not shown: His-Tag

Kd [6]: 7.38 nM
koff [6]: 0.0043 s⁻¹
kon [6]: 581000 M⁻¹ s⁻¹
B7: ACT5261, IL-2 mutein Y31C + L18M + L19S + V69A + Q74P (PEG20K) (ligand)
chain: B1 chain with V69A, Q74P
modifications: maleimide-PEG 20K on Cys 31
notes: rhIL-2 (C125S) background; also called Y31C - PEG20 + L18M + L19S + V69A + Q74P; not shown: His-Tag

Further lines, the binder ahead of its results:

B3: IL-2 mutein Y31C - PEG20 + N30G (ligand)
chain: B1 chain with M18L, S19L, N30G
modifications: maleimide-PEG 20K on Cys 31
notes: not shown: His-Tag
Kd [7]: 61 nM
koff [7]: 0.0232 s⁻¹
kon [7]: 379000 M⁻¹ s⁻¹
Kd [6]: 61 nM
koff [6]: 0.0232 s⁻¹
kon [6]: 379000 M⁻¹ s⁻¹

B6: ACT522S1, IL-2 mutein Y31C + N30S (PEG20K) (ligand)
chain: B1 chain with M18L, S19L, N30S
modifications: maleimide-PEG 20K on Cys 31
notes: rhIL-2 (C125S) background; also called Y31C - PEG20 + N30S; not shown: His-Tag
Kd [6]: 47.3 nM
koff [6]: 0.0302 s⁻¹
kon [6]: 639000 M⁻¹ s⁻¹

B8: ACT5291, IL-2 mutein Y31C + V69A + Q74P + V91K (PEG20K) (ligand)
chain: B1 chain with M18L, S19L, V69A, Q74P, V91K
modifications: maleimide-PEG 20K on Cys 31
notes: rhIL-2 (C125S) background; also called Y31C - PEG20 + V69A + Q74P + V91K; not shown: His-Tag
Kd [6]: 9.07 nM
koff [6]: 0.0032 s⁻¹
kon [6]: 355000 M⁻¹ s⁻¹

B9: ACT5271, IL-2 mutein Y31C + V69A + Q74P + N30S (PEG20K) (ligand)
chain: B1 chain with M18L, S19L, N30S, V69A, Q74P
modifications: maleimide-PEG 20K on Cys 31
notes: rhIL-2 (C125S) background; also called Y31C - PEG20 + V69A + Q74P + N30S; not shown: His-Tag
Kd [6]: 9.14 nM
koff [6]: 0.0029 s⁻¹
kon [6]: 318000 M⁻¹ s⁻¹

B10: ACT5211, IL-2 mutein Y31C + L18M + L19S (PEG20K) (ligand)
chain: B1 chain
modifications: maleimide-PEG 20K on Cys 31
notes: rhIL-2 (C125S) background; also called Y31C - PEG20 + L18M + L19S; Y31C-PEG20+L18ML19S; not shown: His-Tag
EC50 ratio rhIL2/ACT5211 [8]: 0.1
EC50 ratio rhIL2/ACT5211 [9]: 6.8
EC50 [10]: 2.03 ng/mL
EC50 [11]: 5.1 ng/mL
EC50 [12]: 21.7 ng/mL
EC50 [13]: 5.01 ng/mL
ratio of the (α/βγ) EC50 ratios, rhIL2/ACT5211 [14]: 67.7
Kd [1]: 250 nM
koff [1]: 0.139 s⁻¹
kon [1]: 555000 M⁻¹ s⁻¹
Kd [2]: 15.1 nM
koff [2]: 0.00147 s⁻¹
kon [2]: 97200 M⁻¹ s⁻¹
Kd (IL2R αβγ): 0.289 nM
koff (IL2R αβγ): 0.000761 s⁻¹
kon (IL2R αβγ): 2.63e+06 M⁻¹ s⁻¹
Ratio (α/βγ) of EC50 [5]: 0.3
Kd [6]: 91.5 nM
koff [6]: 0.0388 s⁻¹
kon [6]: 424000 M⁻¹ s⁻¹
binding result (IL2R β): no binding (tested: not printed)

B11: ACT5281, IL-2 mutein Y31C + V69A + Q74P + N88R (PEG20K) (ligand)
chain: B1 chain with M18L, S19L, V69A, Q74P, N88R
modifications: maleimide-PEG 20K on Cys 31
notes: rhIL-2 (C125S) background; also called Y31C - PEG20 + V69A + Q74P + N88R; not shown: His-Tag
Kd [6]: 10.6 nM
koff [6]: 0.0037 s⁻¹
kon [6]: 345000 M⁻¹ s⁻¹

From patent US20240010697A1 (CYTIMM THERAPEUTICS, published 2024)
